Measurements taken from patent EP3007726B1.

Biological target: tau of P301L tau transgenic mice (4R2N human tau mutated at P301L) (human) (UniProt P10636)
Experiment: free-tau ELISA on CSF of P301L mice treated with IPN002, against control IgG (Figure 33)

Sequence of UniProt P10636 (P10636 other isoform, or with tags, fused parts or gaps P301L P301L P301L P301L limits assumed): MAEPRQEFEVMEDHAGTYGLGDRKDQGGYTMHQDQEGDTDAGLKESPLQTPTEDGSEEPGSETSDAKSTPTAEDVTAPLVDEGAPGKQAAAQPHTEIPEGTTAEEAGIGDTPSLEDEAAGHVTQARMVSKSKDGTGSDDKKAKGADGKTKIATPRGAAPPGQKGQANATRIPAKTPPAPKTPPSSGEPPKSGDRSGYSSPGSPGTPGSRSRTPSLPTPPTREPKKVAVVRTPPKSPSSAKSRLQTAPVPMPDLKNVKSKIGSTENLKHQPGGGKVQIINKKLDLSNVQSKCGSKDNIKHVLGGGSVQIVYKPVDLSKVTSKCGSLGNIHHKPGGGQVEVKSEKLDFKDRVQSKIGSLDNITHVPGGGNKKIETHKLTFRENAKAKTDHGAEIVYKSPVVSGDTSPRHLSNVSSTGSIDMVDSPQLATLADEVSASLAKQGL

B1: IPN002 (antibody, V domains shown)
VH: EVHLVESGGALVKPGGSLKLSCAASGFSFSKYGMSWVRQTPDKRLEWVATISSSGSRTYYPDSVKGQFTISRDNAKNTLYLQMSSLKSEDTAMYYCSISWDGAMDYWGQGTSVTVSS
VL: DVLMTQTPLSLPVSLGDQASISCKSSQSIVHSNGNTYLEWYLQKPGQSPKLLVYKVSNRFSGVPDRFSGSGSGTDFTLKISRVEAEDLGTYYCFQGSLVPWAFGGGTKLEIK
- reduction in levels of the Free Tau (of IPN002) signal in CSF: 96%
